49 molecules from patent US20170296640A1 (IMMATICS BIOTECHNOLOGIES, published 2017) can be followed below.

The target in the assay is T1, HLA-A*02:01 (peptide-receptive MHC class I monomer after UV cleavage of the UV-sensitive ligand) (human).
T1 construct: MHC monomers loaded by UV-ligand exchange and captured on streptavidin plates
Kind of assay: UV ligand-exchange ELISA; exchange yield grade (+ >=10%, ++ >=20%, +++ >=50%, ++++ >=75%). The text has this: Candidate peptides for T cell based therapies according to the present invention were further tested for their MHC binding capacity (affinity). The individual peptide-MHC complexes were produced by UV-ligand exchange, where a UV-sensitive peptide is cleaved upon UV-irradiation, and exchanged with the peptide of interest as analyzed. Only peptide candidates that can effectively bind and stabilize the peptide-receptive MHC molecules prevent dissociation of the MHC complexes. To determine the yield of the exchange reaction, an ELISA was performed based on the detection of the light chain (β2m) of stabilized MHC complexes. The assay was performed as generally described in Rodenko et al. (Rodenko et al., 2006).
96 well MAXISorp plates (NUNC) were coated over night with 2 ug/ml streptavidin in PBS at room temperature, washed 4× and blocked for 1 h at 37° C. in 2% BSA containing blocking buffer. Refolded HLA-A*02:01/MLA-001 monomers served as standards, covering the range of 15-500 ng/ml. Peptide-MHC monomers of the UV-exchange reaction were diluted 100 fold in blocking buffer. Samples were incubated for 1 h at 37° C., washed four times, incubated with 2 ug/ml HRP conjugated anti-β2m for 1 h at 37° C., washed again and detected with TMB solution that is stopped with […]. Absorption was measured at 450 nm. Candidate peptides that show a high exchange yield (preferably higher than 50%, most preferred higher than 75%) are generally preferred for a generation and production of antibodies or fragments thereof, and/or T cell receptors or fragments thereof, as they show sufficient avidity to the MHC molecules and prevent dissociation of the MHC complexes.
In general terms: An ELISA detects its analyte on a solid surface through an enzyme-linked reagent.
YQYPFVLGL [YQYPFVLGL (SEQ ID NO: 110)] yielded a peptide exchange yield of at least 75%.

As to HLVPASWKL [HLVPASWKL (SEQ ID NO: 13)], the peptide exchange yield lay in the range of 50 to 75%. With ELCDIILRV [ELCDIILRV (SEQ ID NO: 119)], the peptide exchange yield lay in the range of 50 to 75%. In turn, VLQDQVDEL [VLQDQVDEL (SEQ ID NO: 132)] showed a peptide exchange yield of 20 to 50%. In the case of SLFAAISGMIL [SLFAAISGMIL (SEQ ID NO: 102)] it was 50 to 75%; in that of ALTGLQFQL [ALTGLQFQL (SEQ ID NO: 135)], 50 to 75%.

Molecule VLDGMIYAI [VLDGMIYAI (SEQ ID NO: 118)] yielded a peptide exchange yield of 50 to 75%. Under GLLLLVPLL [GLLLLVPLL (SEQ ID NO: 12)] stands 50 to 75%. With FLGELTLQL [FLGELTLQL (SEQ ID NO: 141)], the peptide exchange yield was in the range of 50 to 75%. In the case of FLLVGTQIDL [FLLVGTQIDL (SEQ ID NO: 10)] it was 50 to 75%; in that of FLFEDFVEV [FLFEDFVEV (SEQ ID NO: 140)], 50 to 75%; in that of YLAPENGYLM [YLAPENGYLM (SEQ ID NO: 108)], 50 to 75%.

The molecule ALGRLGILSV [ALGRLGILSV (SEQ ID NO: 134)] gave a peptide exchange yield of 50 to 75%. In the case of FLGVVVPTV [FLGVVVPTV (SEQ ID NO: 124)] it was 50 to 75%; in that of LLSDPTPGA [LLSDPTPGA (SEQ ID NO: 14)], 20 to 50%; in that of SLFEASQQL [SLFEASQQL (SEQ ID NO: 129)], 50 to 75%. Under VIFSYVLGV [VIFSYVLGV (SEQ ID NO: 130)] stands 50 to 75%. As for NLINNIFEL [NLINNIFEL (SEQ ID NO: 138)], the peptide exchange yield was at least 75%. Take VLIEETDQL [VLIEETDQL (SEQ ID NO: 131)]: the peptide exchange yield fell in the range of 20 to 50%. As to FLAILPEEV [FLAILPEEV (SEQ ID NO: 112)], the peptide exchange yield was 50 to 75%. In the case of GLITQVDKL [GLITQVDKL (SEQ ID NO: 144)] it was 50 to 75%; in that of VLATILAQL [VLATILAQL (SEQ ID NO: 117)], at least 75%; in that of GLDTVVALL [GLDTVVALL (SEQ ID NO: 11)], 50 to 75%. For the molecule KLFDASPTFFA [KLFDASPTFFA (SEQ ID NO: 128)], the peptide exchange yield fell in the range of 50 to 75%. As to YLTGYNFTL [YLTGYNFTL (SEQ ID NO: 121)], the peptide exchange yield fell in the range of 50 to 75%. Under TLHAVDVTL [TLHAVDVTL (SEQ ID NO: 143)] stands 50 to 75%.

As to SLQDHLEKV [SLQDHLEKV (SEQ ID NO: 103)], the peptide exchange yield fell in the range of 50 to 75%.

SLDQSTWNV [SLDQSTWNV (SEQ ID NO: 101)] showed a peptide exchange yield of at least 75%. Take VLYELLQYI [VLYELLQYI (SEQ ID NO: 106)]: the peptide exchange yield is at least 75%. Under FVAPPTAAV [FVAPPTAAV (SEQ ID NO: 125)] stands 50 to 75%; under AISEAQESV [AISEAQESV (SEQ ID NO: 122)], 20 to 50%; under FIQQERFFL [FIQQERFFL (SEQ ID NO: 137)], 50 to 75%. In the case of VLTPVILQV [VLTPVILQV (SEQ ID NO: 105)], the peptide exchange yield fell in the range of 50 to 75%. In the case of VQAVSIPEV [VQAVSIPEV (SEQ ID NO: 107)] it was 50 to 75%; in that of YLFQFSAAL [YLFQFSAAL (SEQ ID NO: 109)], 50 to 75%; in that of FIFGIVHLL [FIFGIVHLL (SEQ ID NO: 136)], 50 to 75%. Under FLYEDSKSVRL [FLYEDSKSVRL (SEQ ID NO: 142)] stands 50 to 75%; under ALLSAFVQL [ALLSAFVQL (SEQ ID NO: 123)], 50 to 75%.

The molecule LLIDIIHFL [LLIDIIHFL (SEQ ID NO: 115)] came in with a peptide exchange yield of at least 75%. Take HLMEENMIVYV [HLMEENMIVYV (SEQ ID NO: 127)]: the peptide exchange yield lay in the range of 50 to 75%. With VLLGLPLLV [VLLGLPLLV (SEQ ID NO: 104)], the peptide exchange yield fell in the range of 50 to 75%.

VLLGTTWAL [VLLGTTWAL (SEQ ID NO: 120)] displayed a peptide exchange yield of 50 to 75%. For ALEELTGFREL [ALEELTGFREL (SEQ ID NO: 133)], the peptide exchange yield was in the range of 20 to 50%.

FVIDSFEEL [FVIDSFEEL (SEQ ID NO: 113)] yielded a peptide exchange yield of 50 to 75%.

YLLDTLLSL [YLLDTLLSL (SEQ ID NO: 111)] registered a peptide exchange yield of 50 to 75%.

Turning to FLASPLVAI [FLASPLVAI (SEQ ID NO: 139)], the peptide exchange yield was at least 75%. Under GLSDISPST [GLSDISPST (SEQ ID NO: 114)] stands 20 to 50%; under SLLDNLLTI [SLLDNLLTI (SEQ ID NO: 116)], 50 to 75%; under LLSGQLPTI [LLSGQLPTI (SEQ ID NO: 1)], 50 to 75%.
